Experimental data from patent US20240165260A1, “CONJUGATES OF ANTIBODY AND FUNCTIONAL SUBSTANCE OR SALTS THEREOF, AND COMPOUNDS USED IN PRODUCTION OF THE SAME OR SALTS THEREOF” (priority 2021, published 2024).

How the values were obtained:
[1] = Evaluation of hydrophobicity by hydrophobic column chromatography (HIC-HPLC); format: physicochemical; details: hydrophobicity measure, Tosoh Biobuthyl NPR column, UV 280 nm
Procedure: According to a previous report (Anal. Chem., 2019, 91, 20, 12724-12732, which is incorporated herein by reference in its entirety), HIC-HPLC analysis was performed. Measurement was performed using the following conditions. The hydrophobicity of an ADC can be evaluated by retention time of the ADC in HIC chromatogram.
Measurement system: Chromaster (registered trademark) (manufactured by Hitachi, Ltd.)
Column: Tosoh Biobuthyl NPR 2.5 μm 4.6×35 mm column manufactured by Tosoh Bio-Sciences Inc.
Gradient: linear gradient of eluent A/B
Eluent B: 25 mM Na2HPO4/NaH2PO4 (pH 6.0, 25 v/v % isopropanol added)

cathepsin B = cathepsin B (Homo sapiens, UniProt P07858); assay: Cathepsin B cleavability test of ADC mimics (released fluorescent molecules, HPLC/fluorescence); format: biochemical; details: 1 mg/mL ADC mimic, MES buffer pH 5.0, 37° C., six hours
Procedure: Cleave abilities for various ADC mimics by cathepsin B were evaluated by analyzing the amount of fluorescent molecules released from the ADC mimics as described below.
A cathepsin B cleavability test was performed as follows according to a previous report (Nature Communications 2018, 9, 2512, which is incorporated herein by reference in its entirety). An ADC mimic was added to 180 μL of a MES buffer (10 mM MES, 40 μM DTT, pH 5.0) so as to have a concentration of 1 mg/mL, and then 30 μL of the solution was poured into each of six Eppendorf tubes. To each of three of the six samples, 100 μL of acetonitrile was immediately added at 0° C. The mixture was stirred by vortex, and then centrifuged to obtain a precipitate. The resulting supernatant solution was collected and subjected to HPLC analysis. The remaining three samples were incubated at 37° C. for six hours. To each of the samples, 100 μL of acetonitrile was added. The mixture was stirred by vortex, and then centrifuged to obtain a precipitate. The resulting supernatant solution was collected and subjected to HPLC analysis.
For the measurement, the amount of fluorescent molecules released from an ADC mimic was measured using a liquid chromatography/fluorescence detection method. The three samples to which acetonitrile was immediately added at 0° C. in Example 7-1 were taken as 0 hour samples, and the three samples incubated at 37° C. for six hours as described in Example 7-1 were taken as 6 hour samples. A difference in fluorescence intensity between the 6 hour samples and the 0 hour samples was analyzed.
Separately, a correlation between the area of a fluorescence intensity area by HPLC and a concentration was calculated using Pyrene. The difference in fluorescence intensity between the ADC mimics was converted into a concentration using the calculation formula. When the concentration at 0 hour was set to 100%, a ratio of the above-described difference in fluorescence intensity was calculated as a releasing ratio.

[2] = Test for stability of ADC mimic in mouse plasma (released fluorescent molecules); format: in vitro ADME; details: 0.1 mg/mL, 37° C., four days
Procedure: An ADC mimic was added to 500 μL of mouse plasma (manufactured by Charles River) so as to have a concentration of 0.1 mg/mL, and then the mixture was subjected to sterile filtration. 50 μL of this solution was poured into each of six Eppendorf tubes. Three of the six samples were stored in an incubator set at 37° C. for four days. The remaining three samples were stored in a freezer at −80° C. for four days similarly. To each of the samples, 100 μL of acetonitrile was added. The mixture was stirred by vortex, and then centrifuged to obtain a precipitate. The resulting supernatant solution was collected and subjected to HPLC analysis.
For the measurement, the amount of fluorescent molecules released from an ADC mimic was measured using a liquid chromatography/fluorescence detection method. The three samples stored in a freezer in Example 9-1 were taken as Day=0 samples, and the three samples stored at 37° C. in Example 9-1 were taken as Day=4 samples. A difference in fluorescence intensity between Day=4 samples and Day=0 samples was analyzed.
A releasing ratio of the fluorescent molecules was calculated according to Example 7-2.
Regarding the results, as illustrated in the following Table, a releasing ratio of the fluorescent molecules was evaluated.

[3] = Evaluation of aggregation ratio by size exclusion chromatography (SEC-HPLC); format: physicochemical; details: UV 280 nm
Procedure: SEC-HPLC analysis was performed according to a previous report (Chemistry Select, 2020, 5, 8435-8439, which is incorporated herein by reference in its entirety). Measurement was performed using the following conditions.
Measurement system: 1260 HPLC system (manufactured by Agilent)
Column: AdvanceBio SEC 300 Å, 2.7 μm, 4.6 mm×150 mm, manufactured by Agilent Technologies
Eluent: 100 mM sodium dihydrogen phosphate/sodium hydrogen phosphate, aqueous solution of 250 mM sodium chloride (pH 6.8), 10′% v/v isopropanol

SMILES | Retention time [1] [min] | Releasing ratio of fluorescent molecule for 6 hours (cathepsin B) [%] | Releasing ratio of payload on Day 4 [2] [%] | aggregation ratio [3] [%]
CNC(=O)CCSC1CC(=O)N(CCCCCC(=O)N[C@@H](CCC(=O)O)C(=O)N[C@H](C(=O)N[C@@H](CCCNC(N)=O)C(=O)Nc2ccc(COC(=O)N(C)CC(=O)NCc3cc4ccc5cccc6ccc(c3)c4c56)cc2)C(C)C)C1=O (stereo partly drawn) [ADC mimic 1] | 12.8 | 88 | 8 | 3.0
CNC(=O)CCSC1CC(=O)N(CCCCCC(=O)N(CC(=O)O)CC(=O)N[C@H](C(=O)N[C@@H](CCCNC(N)=O)C(=O)Nc2ccc(COC(=O)N(C)CC(=O)NCc3cc4ccc5cccc6ccc(c3)c4c56)cc2)C(C)C)C1=O (stereo partly drawn) [ADC mimic 3] | 12.7 | 100 | 9 | 2.9
CNC(=O)CCSC1CC(=O)N(CCCCCC(=O)N[C@@H](C(=O)N[C@H](CCCNC(N)=O)C(=O)Nc2ccc(COC(=O)N(C)CC(=O)NCc3cc4ccc5cccc6ccc(c3)c4c56)cc2)C(C)C)C1=O (stereo partly drawn) [ADC mimic 4, reference compound] | 13.1 | 53 | 38 | 6.2
